For the data set the following is noted: Escherichia coli (strain K12); pH 7.8; 25 °C; Urea; CD; potassium phosphate 10 mM; transition: 3; whole UniProt chain shown.

B1: Tryptophan synthase alpha chain wild type, P0A877 (protein)
chain: MERYESLFAQLKERKEGAFVPFVTLGDPGIEQSLKIIDTLIEAGADALELGIPFSDPLADGPTIQNATLRAFAAGVTPAQCFEMLALIRQKHPTIPIGLLMYANLVFNKGIDEFYAQCEKVGVDSVLVADVPVEESAPFRQAALRHNVAPIFICPPNADDDLLRQIASYGRGYTYLLSRAGVTGAENRAALPLNHLVAKLKEYNAAPPLQGFGISAPDQVKAAIDAGAAGAISGSAIVKIIEQHINEPEKMLAALKVFVQPMKAATRS
As for B1, the denaturant m value was 2.29 kcal/mol/M, the “denaturant midpoint (higher = more stable)” value amounted to 2.68 M and the unfolding free energy was determined as 6.13 kcal/mol.

For the origin of these results see FireProtDB (doi:10.1016/s0022-2836(02)00737-4).
